Key:
[1] = target: EcFkpA-TpN17-Bi(DDS) (Treponema pallidum (TpN17 part); E. coli (FkpA part)); assay: DAGS ECL; detection EcSkp-TpN17-Ru; competitor EcSlyD-VcLp15 0.2 ug/ml in R1
[2] = target: EcFkpA-TpN17-Bi(DDS) (Treponema pallidum (TpN17 part); E. coli (FkpA part)); assay: DAGS ECL; detection EcSkp-TpN17-Ru; competitor EcSlyD-VcLp15 0.5 ug/ml in R1
[3] = target: EcFkpA-TpN17-Bi(DDS) (Treponema pallidum (TpN17 part); E. coli (FkpA part)); assay: DAGS ECL; detection EcSkp-TpN17-Ru; competitor EcSkp-VcLp15 1.0 ug/ml in R1
[4] = target: EcSS-TpN17-Bi(DDS) (Treponema pallidum (TpN17 part); E. coli (SlyD part)); assay: DAGS ECL; detection PmSS-TpN17-Ru; competitor EcSlyD-VcLp15 0.2 ug/ml in R1
[5] = target: EcFkpA-TpN17-Bi(DDS) (Treponema pallidum (TpN17 part); E. coli (FkpA part)); assay: DAGS ECL; detection EcSkp-TpN17-Ru; competitor EcSlyD-VcLp15 0.1 ug/ml in R1
[6] = target: EcSS-TpN17-Bi(DDS) (Treponema pallidum (TpN17 part); E. coli (SlyD part)); assay: DAGS ECL; detection PmSS-TpN17-Ru; competitor EcSlyD-VcLp15 0.3 ug/ml in R1
[7] = target: EcFkpA-TpN17-Bi(DDS) (Treponema pallidum (TpN17 part); E. coli (FkpA part)); assay: DAGS ECL; detection EcSkp-TpN17-Ru; EcSlyD-VcLp15 0 ug/ml in R1
[8] = target: EcSS-TpN17-Bi(DDS) (Treponema pallidum (TpN17 part); E. coli (SlyD part)); assay: DAGS ECL; detection PmSS-TpN17-Ru; EcSlyD-VcLp15 0 ug/ml in R1
[9] = target: EcSS-TpN17-Bi(DDS) (Treponema pallidum (TpN17 part); E. coli (SlyD part)); assay: DAGS ECL; detection PmSS-TpN17-Ru; competitor EcSkp-VcLp15 1.0 ug/ml in R1
[10] = target: EcSS-TpN17-Bi(DDS) (Treponema pallidum (TpN17 part); E. coli (SlyD part)); assay: DAGS ECL; detection PmSS-TpN17-Ru; competitor EcSkp-VcLp15 0.1 ug/ml in R1
[11] = target: EcSS-TpN17-Bi(DDS) (Treponema pallidum (TpN17 part); E. coli (SlyD part)); assay: DAGS ECL; detection PmSS-TpN17-Ru; competitor EcSlyD-VcLp15 0.1 ug/ml in R1
[12] = target: EcSS-TpN17-Bi(DDS) (Treponema pallidum (TpN17 part); E. coli (SlyD part)); assay: DAGS ECL; detection PmSS-TpN17-Ru; competitor EcSlyD-VcLp15 0.5 ug/ml in R1
[13] = target: EcFkpA-TpN17-Bi(DDS) (Treponema pallidum (TpN17 part); E. coli (FkpA part)); assay: DAGS ECL; detection EcSkp-TpN17-Ru; EcSkp-VcLp15 0 ug/ml in R1
[14] = target: EcFkpA-TpN17-Bi(DDS) (Treponema pallidum (TpN17 part); E. coli (FkpA part)); assay: DAGS ECL; detection EcSkp-TpN17-Ru; competitor EcSlyD-VcLp15 0.3 ug/ml in R1
[15] = target: EcFkpA-TpN17-Bi(DDS) (Treponema pallidum (TpN17 part); E. coli (FkpA part)); assay: DAGS ECL; detection EcSkp-TpN17-Ru; competitor EcSkp-VcLp15 0.1 ug/ml in R1
[16] = target: EcSS-TpN17-Bi(DDS) (Treponema pallidum (TpN17 part); E. coli (SlyD part)); assay: DAGS ECL; detection PmSS-TpN17-Ru; EcSkp-VcLp15 0 ug/ml in R1
[17] = target: EcSS-TpN17-Bi(DDS) (Treponema pallidum (TpN17 part); E. coli (SlyD part)); assay: DAGS ECL; detection PmSS-TpN17-Ru; competitor EcSlyD-VcLp15 1.0 ug/ml in R1
[18] = target: EcFkpA-TpN17-Bi(DDS) (Treponema pallidum (TpN17 part); E. coli (FkpA part)); assay: DAGS ECL; detection EcSkp-TpN17-Ru; competitor EcSlyD-VcLp15 1.0 ug/ml in R1

| Substance | counts [1] [counts] | counts [2] [counts] | counts [3] [counts] | counts [4] [counts] | counts [5] [counts] | counts [6] [counts] | counts [7] [counts] | counts [8] [counts] | counts [9] [counts] | counts [10] [counts] | counts [11] [counts] | counts [12] [counts] | counts [13] [counts] | counts [14] [counts] | counts [15] [counts] | counts [16] [counts] | counts [17] [counts] | counts [18] [counts] |
| --- | --- | --- | --- | --- | --- | --- | --- | --- | --- | --- | --- | --- | --- | --- | --- | --- | --- | --- |
| Trina #0642 | 722 | 698 | 744 | 638 | 716 | 626 | 778 | 657 | 632 | 673 | 613 | 623 | 750 | 698 | 757 | 673 | 610 | 661 |
| Trina #0646 | 817 | 784 | 815 | 634 | 795 | 628 | 797 | 634 | 646 | 659 | 617 | 621 | 840 | 802 | 847 | 651 | 613 | 784 |
| Trina #0647 | 764 | 762 | – | 606 | 786 | 620 | 774 | 623 | – | – | 614 | 618 | – | 773 | – | – | 623 | 742 |
